PMC3679298

Key:
[1] = biological target: HLA-C*06:02 on single-antigen beads; assay: Luminex single-antigen HLA bead binding assay
[2] = biological target: HLA-C*03:04 on single-antigen beads; assay: Luminex single-antigen HLA bead binding assay

“soluble KIR2DL2*003 Fc fusion protein (sKIR2DL2*003) (from UniProt P43627 22-245)” was tested, and the Kd [1] was 24 µM, the MFI at 20 μg/ml [1] was < 500 MFI and the Kd [2] was 0.7 µM.

“soluble KIR2DL2*006 Fc fusion protein (sKIR2DL2*006) (from UniProt P43627 22-245)” was tested, and the Kd [1] was 4.3 µM and the MFI at 20 μg/ml [1] was < 500 MFI.

With “soluble KIR2DL2*001 Fc fusion protein (sKIR2DL2*001) (from UniProt P43627 22-245)” the MFI at 20 μg/ml [1] was < 500 MFI and the Kd [2] was 0.2 µM.

In the case of “soluble KIR2DL3*005 Fc fusion protein (sKIR2DL3*005) (from UniProt P43628 22-245)”, the Kd [1] is reported as 7 µM, the MFI at 20 μg/ml [1] is reported as < 500 MFI and the Kd [2] is reported as 0.1 µM.

For “soluble KIR2DL3*002 Fc fusion protein (sKIR2DL3*002) (from UniProt P43628 22-245)”, the Kd [2] was 1.2 µM.

“soluble KIR2DL3*001 Fc fusion protein (sKIR2DL3*001) (from UniProt P43628 22-245)” showed a Kd [2] of 1 µM.
